The source of these data is US20230408517A1 (BIO TECHNE, published 2023).

Like-named read-outs stand apart in the source and are kept apart here.

In assay [1] the target is T1, recombinant monomeric SARS-CoV-2 S1 protein, his-tagged (SARS-CoV-2, UniProt P0DTC2 16-681).
T1 construct: domain: S1
Description: flow cytometry, blocking of binding to hACE-2 cells.

Assay [2] addresses T2, recombinant his-tagged homotrimeric SARS-CoV-2 spike protein (SARS-CoV-2, UniProt P0DTC2 16-1211). Described as above.
The target in assay [3] is T3, recombinant monomeric SARS-CoV-1 S1 protein (SARS-CoV-1, UniProt P59594 14-667). The assay is described as above.
Assay [4] addresses T4, SARS-CoV spike RBD (R306-F527), C-terminal 6-His (SARS-CoV, UniProt P59594 306-527). The description is as above.
For assay [5], the target named is T1, recombinant monomeric SARS-CoV-2 S1 …. Described as above. This is another data set of the same source.
Assay [6] deals with T2, recombinant his-tagged homotrimeric …. The description is as above. The source holds these as a separate data set.
Assay [7] concerns the target T3, recombinant monomeric SARS-CoV-1 S1 …. The description is as above. The source holds these as a separate data set.
The target of assay [8] is T4, SARS-CoV spike RBD (R306-F527), …. The description is as above. The source holds these as a separate data set.
The target in assay [9] is T3, recombinant monomeric SARS-CoV-1 S1 …. The assay is described as follows: antigen-down ELISA, coated SARS-CoV-1 S1 titrated, Ab 1 µg/mL.
Assay [10] has as its target T5, BSA (bovine, UniProt P02769).
T5 construct: also called bovine serum albumin
The assay is described as follows: dipstick, adsorbed protein spots, Ab 10 µg/mL, GAM-AuNP.

Assay [11] has as its target T4, SARS-CoV spike RBD (R306-F527), …. The assay is described as follows: antigen-down ELISA, coated SARS-CoV-1 S1 RBD titrated, Ab 1 µg/mL.

T5 sequence (P02769 25-607 limits assumed): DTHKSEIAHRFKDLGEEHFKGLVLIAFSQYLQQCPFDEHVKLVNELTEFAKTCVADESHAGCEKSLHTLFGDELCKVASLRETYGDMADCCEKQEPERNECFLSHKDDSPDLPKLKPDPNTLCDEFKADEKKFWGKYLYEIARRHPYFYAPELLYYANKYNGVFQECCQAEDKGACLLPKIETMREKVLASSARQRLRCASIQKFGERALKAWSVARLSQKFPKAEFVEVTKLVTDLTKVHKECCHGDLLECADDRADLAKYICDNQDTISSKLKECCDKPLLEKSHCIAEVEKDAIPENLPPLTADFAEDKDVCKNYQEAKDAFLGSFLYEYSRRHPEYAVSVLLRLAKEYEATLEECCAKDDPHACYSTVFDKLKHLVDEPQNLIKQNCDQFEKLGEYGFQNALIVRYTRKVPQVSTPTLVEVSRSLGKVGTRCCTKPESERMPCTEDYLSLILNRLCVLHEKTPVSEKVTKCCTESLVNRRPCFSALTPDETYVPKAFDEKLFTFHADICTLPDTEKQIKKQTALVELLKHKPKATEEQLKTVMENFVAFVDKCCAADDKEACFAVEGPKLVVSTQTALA

B1: 1035762 (antibody, V domains shown)
VH: EVQLQQSGPELVKPGASVKISCKTSGYTFTEYTMHWVKQSHGKSLEWIGGINPNNGDTGYNQKFKGKATLTVDKSSSTAYMELRSLTFEDSAVYYCARDGYPLYYAMDYWGQGTSVTVSS
VL: DIQMTQSPSSLSASLGERVSLTCRASQEISGYLCWLQQKPDGTIKRLIYAASTLDSAVPKRFSGSRSGSDYSLTISSLESEDFADFYCLQYASYPWTFGGGTKLEIK
For the molecule B1, the percent blocking was found to be 93.2% in [1]; 93% in assay [2]; 0% in [3]; 0% in [4]; 93.2% in [5]; 93% in assay [6]. For the same molecule, the percent blocking in [7] and in assay [8] was 0% each time. The binding result in assay [9] is listed as “no binding (tested: 400 ng coated (axis))”; in assay [10], “no binding (tested: 10 µg/mL)”; in [11] it was “no binding (tested: 400 ng coated (axis))”.
